Experimental data reported in patent US12612650B2, “Methods for improved homologous recombination and compositions thereof” (LIFE TECHNOLOGIES CORPORATION, priority 2017, dated 2026).
Several values for one entry are separate records, joined by “and”; a condition that tells them apart may be missing. Identical values can stand only once. Marks after values point to notes of the source that are not given here.

Key:
Format in all cases: cell-based, human
LRRK2 genomic locus = test: Junction PCR and sequencing of clonal A549 cells, N-terminal tagging of LRRK2
Procedure: (§1) 293FT or A549 cells were maintained in DMEM medium supplemented with 10% FBS. On the day of transfection, cells were detached from the culture flask and counted. For each electroporation, 1.5 μg of Cas9 protein and 360 ng of gRNA were added to Resuspension Buffer R to a final volume of 7 μl, but the total volume of Cas9 protein plus gRNA added was less than 1 μl. Upon mixing, the sample was incubated at room temperature for 5 to 10 minutes to form Cas9 RNPs complex. Meanwhile, aliquots of 1×10^6 cells were washed once with DPBS without Ca^2+ and Mg^2+ and the cell pellets were resuspended in 50 μl of Resuspension Buffer R. A 5 μl aliquot of cell suspension was then mixed with 7 μl of Cas9 RNPs, followed by addition of 1 μl indicated amount of donor DNA. 10 μl of cell suspension containing Cas9 RNP and donor was applied to NEON® electroporation (Thermo Fisher Scientific, cat. no. MPK5000) with voltage set at 1150V, pulse width set at 20 ms, and the number of pulses set at 2, respectively. The electroporated cells were transferred to a 48-well plate containing 0.5 ml culture media. Samples without either gRNA or donor DNA served as controls. At 48 hours post transfection, the cells were analyzed by flow cytometry. Alternatively, the genomic loci were PCR-amplified with the corresponding primers. The resulting PCR fragments were analyzed using the GENEART® Genomic Cleavage Detection assay. The edited cells were further subjected to limiting dilution, followed by clonal cell isolation. The clonal cells were characterized by PCR amplification of both the N- and C-terminal junctions and sequencing. The sequencing data were analyzed using VECTOR NTI ADVANCE® 11.5 software (Thermo Fisher Scientific).
Besides beta-actin, we also evaluated a different protein in a different cell line. LRRK2 protein is related to Parkinson's disease with a molecular weight of approximately 280 kd. A gRNA was designed to target the LRRK2 genomic locus near the start codon. Approximately 35 nt homology arms were added to a sequence-verified promoterless puromycin-P2A-EmGFP DNA fragment via PCR amplification. The Cas9 RNP and donor DNA were co-delivered into A549 cells via NEON® electroporation using 1050 volts, 30 milliseconds and 2 pulses. Because LRRK2 is relatively low abundant protein, we were not able to detect EmGFP signal inside the cells. […] To examine the integration efficiency, the cells were treated with 0.75 μg/ml puromycin for 7 days at 48 hours post transfection, followed by limiting dilution and clonal cell isolation. The junctions were analyzed by PCR using one inner primer and one outer primer, or a pair of outer primers. The resulting PCR products were analyzed by sequencing to determine the precision of integration. […]

beta-actin locus = test: Junction PCR and sequencing of clonal 293FT cells, integration at beta-actin locus
Procedure: as §1
To examine the identity of integration sites, cells transfected with Cas9 RNP and donor DNA were subjected to puromycin selection, limiting dilution, and clonal cell isolation. A total of 48 colonies were randomly picked for junction PCR analysis. […] All the other 47 colonies gave rise to PCR products for both N- and C-terminal junctions when one outer primer and one inner primer were used. The PCR product was also observed when a pair of outer primers was used with the size of about 420 bp, which corresponded to the genomic DNA fragment without an insert. The reason why a large PCR product containing the insert was not observed was because the smaller DNA fragment without the insert was preferentially amplified. […] The other 18% of clonal cells also contained the insert but had mutations at the junction areas (FIG. 3A(2)). Most of the mutations were deletion and insertion. Sometimes a duplicate sequence of a partial or full-length homology arm was inserted at the junction. At the C-terminal junction, approximately 78% of the clonal cells harbored precise HDR (FIG. 3B(1)) whereas the other 22% of cells had Indel formation at the junction (FIG. 3B(2)). Rarely, a relatively large piece of donor DNA (up to 165 nt) was deleted at the C-terminal junction. Overall, all the clonal cells contained one copy of donor DNA at the right genomic locus in one of the alleles with 68% of cells harbored precise HDR at both N- and C-termini and 32% of cells harbored imperfect HDR at either N- or C-terminus or both. […] Instead, approximately 80% of the clones had one “A” insertion at the Cas9 cleavage site and 20% of the clones harbored more than 2 nt deletion. Only one wild type clone was detected at the second allele (FIG. 3C). Most of the clones expressed both wild type beta-actin and OFP fusion of beta-actin as confirmed by Western Blot analysis.
To characterize each clonal cell in the stable pool, we performed limiting dilution and clonal cell isolation. The junctions of integration were analyzed by PCR and sequencing. As depicted in FIGS. 8B and 8C, approximately 88% of clonal cells harbored precise integration at N-terminal junction whereas 12% of clonal cells had some extra sequences inserted at the junction. […]

[1] = system: genomic locus of beta-actin; test: OFP-positive cells by flow cytometry after electroporation of Cas9 RNP and donor DNA into 293FT cells
Procedure: as §1
To evaluate the strategy of tagging endogenous protein, we fused the OFP gene to the N-terminus of beta-actin. Beta-actin is one of the most abundant proteins in eukaryotes, so it is easy to monitor using fluorescence microscopy. A gRNA was designed and synthesized to target the genomic locus of beta-actin near the ATG start codon (Table 12) and then complexed with Cas9 nuclease to form RNPs. The relevant 35 nt homology arms were added to a sequence-verified promoterless puromycin-P2A-OFP DNA fragment by PCR amplification. The resulting donor PCR fragments were purified using PureLink™ PCR Purification Kit and then concentrated using a speed-vac to a final concentration of around 1 μg/μl. To examine the effect of donor dosage on HDR efficient, we kept the amount of Cas9 RNP constant and varied the amount of donor DNA. The Cas9 RNP and donor DNA were transfected into 293 FT via electroporation. At 48 hours post transfection, the cells were analyzed by fluorescence microscope. When the cells were transfected with Cas9 RNP alone or Cas9 protein with donor DNA, no OFP-positive cells were detected, whereas OFP-positive cells were observed when cells were transfected with Cas9 RNP and donor DNA. The percentages of OFP-positive cells were determined by flow cytometric analysis. Without selection, the percentage of OFP-positive cells increased from approximately 5% to 20% when the amount of donor DNA increased from 25 ng to 500 ng (FIG. 2A). The optimal amount of donor DNA was around 500 ng per reaction. On the other hand, after treatment of transfected cells with 1 μg/ml puromycin for 7 days, approximately 80% of cells were OFP-positive. There was no significant difference in the percentage of OFP-positive cells between different amounts of donor DNA (FIG. 2A). Next, we examined the effect of homology arm length on HDR efficiency. Various lengths of homology arms were added to the promoterless puromycin-P2A-OFP DNA fragment by PCR amplification. As depicted in FIG. 2B, when the homology arm length increased from 12 nt to 80 nt, the percentage of OFP-positive cells increased and then plateaued at around 35 nt.
Traditionally, a plasmid donor was used to incorporate large DNA molecules into the genome. […]

[2] = LRRK2, N-terminus, A549 clonal cells
[3] = Beta-actin, N-terminus, 293FT clonal cells

Molecule | Efficiency at allele 1 HDR/Indel (LRRK2 genomic locus; [2]) [%] | Efficiency at allele 1 Precise HDR (LRRK2 genomic locus; [2]) [%] | Efficiency at allele 2 No HDR/Indel (LRRK2 genomic locus; LRRK2, N-terminus, A549 clonal cells, 7 nt deletion) [%] | integration efficiency (LRRK2 genomic locus; all 86 colonies contained at least one copy of the insert) [%] | Efficiency at allele 1 HDR/Indel (beta-actin locus; [3]) [%] | Efficiency at allele 2 No HDR/Indel (beta-actin locus; [3]) [%] | Efficiency at allele 2 Precise HDR (beta-actin locus; [3]) [%] | clonal cells with Indel formation / small mutations at the C-terminal junction (beta-actin locus; beta-actin locus, 293FT) [%] | clonal cells with mutations or extra sequences at the N-terminal junction (beta-actin locus; beta-actin locus, 293FT) [%] | clonal cells with precise HDR / correct junction at the C-terminal junction (beta-actin locus; beta-actin locus, 293FT) | clonal cells with precise HDR at the N-terminal junction (beta-actin locus; beta-actin locus, 293FT) | clones wild type (wt) (beta-actin locus; second allele) [%] | clones with more than 2 nt deletion (beta-actin locus; second allele (no insert)) | clones with one 'A' insertion at the Cas9 cleavage site (beta-actin locus; second allele (no insert)) | percentage of OFP-positive cells ([1]; after 1 μg/ml puromycin for 7 days) | % of functional Cells ([1]; determined by flow cytometry) [%^a] | homology arm length at which percentage of OFP-positive cells plateaued ([1]; homology arm length 12 nt to 80 nt) | optimal amount of donor DNA ([1]; without selection) | percentage of OFP-positive cells ([1]; without selection, 25 ng donor DNA, 48 hours post transfection) | percentage of OFP-positive cells ([1]; without selection, 500 ng donor DNA, 48 hours post transfection) [%]
puromycin-P2A-EmGFP: donor DNA, 1.4 kb: promoterless puromycin-P2A-EmGFP fragment with approximately 35 nt homology arms to LRRK2 locus | 0 | 100 | 80 | 100 | – | – | – | – | – | – | – | – | – | – | – | – | – | – | – | –
puromycin-P2A-OFP: donor DNA, 1.4 kb: promoterless puromycin-P2A-OFP fragment with 35 nt homology arms to the beta-actin locus (nucleic acid, misc_feature 1..1402 Description of Unknown: Beta Actin sequence, donor DNA, 1.4 kb: promoterless puromycin-P2A-OFP fragment with 35 nt homology arms to the beta-actin locus) DNA: CACAGCGCGCCCGGCTATTCTCGCAGCTCACCATGACCGAGTACAAGCCCACAGTGCGGCTGGCCACCAGGGACGATGTGCCTAGAGCTGTGCGGACACTGGCCGCTGCCTTCGCCGATTACCCTGCCACCAGACACACCGTGGACCCCGACAGACACATCGAGAGAGTGACCGAGCTGCAGGAACTGTTTCTGACCAGAGTGGGCCTGGACATCGGCAAAGTGTGGGTGGCCGATGATGGCGCCGCTGTGGCTGTGTGGACAACCCCTGAGTCTGTGGAAGCCGGCGCTGTGTTCGCCGAGATCGGACCTAGAATGGCCGAGCTGAGCGGCTCTAGACTGGCTGCCCAGCAGCAGATGGAAGGCCTGCTGGCCCCCCACAGACCTAAAGAGCCTGCCTGGTTTCTGGCCACCGTGGGCGTGTCACCTGACCACCAGGGCAAGGGACTGGGATCTGCTGTGGTGCTGCCTGGCGTGGAAGCTGCTGAAAGGGCTGGCGTGCCCGCCTTCCTGGAAACAAGCGCCCCCAGAAACCTGCCCTTCTACGAGAGACTGGGCTTCACCGTGACCGCCGACGTGGAAGTGCCTGAGGGCCCTAGAACCTGGTGCATGACCAGAAAGCCTGGCGCCGGAAGCGGAGCTACTAACTTCAGCCTGCTGAAGCAGGCTGGAGACGTGGAGGAGAACCCTGGACCTAACCTGAGCAAAAACGTGAGCGTGAGCGTGTATATGAAGGGGAACGTCAACAATCATGAGTTTGAGTACGACGGGGAAGGTGGTGGTGATCCTTATACAGGTAAATATTCCATGAAGATGACGCTACGTGGTCAAAATTCCCTACCCTTTTCCTATGATATCATTACCACGGCATTTCAGTATGGTTTCCGCGTATTTACAAAATACCCTGAGGGAATTGTTGACTATTTTAAGGATTCGCTTCCCGACGCATTCCAGTGGAACAGACGAATTGTGTTTGAAGATGGTGGAGTACTAAACATGAGCAGTGATATCACATATAAAGATAATGTTCTGCATGGTGACGTCAAGGCTGAGGGAGTGAACTTCCCGCCGAATGGGCCAGTGATGAAGAATGAAATTGTGATGGAGGAACCGACTGAAGAAACATTTACTCCAAAAAACGGGGTTCTTGTTGGCTTTTGTCCCAAAGCGTACTTACTTAAAGATGGTTCCTATTACTATGGAAATATGACAACATTTTACAGATCCAAGAAATCTGGCCAGGCACCTCCTGGGTATCACTTTGTTAAGCATCGTCTCGTCAAGACCAATGTGGGACATGGATTTAAGACGGTTGAGCAGACTGAATATGCCACTGCTCATGTCAGTGATCTTCCCAAATTCGAAGCTGATGATGATATCGCCGCGCTCGTCGTCGACAACGG | – | – | – | – | 32 | 100 | 0 | 22 | 18 | approximately 78% | approximately 82% | 2 | 18% and 20% | approximately 80% | approximately 80% | 80 | around 35 nt | around 500 ng per reaction | approximately 5% | ~20
